Article PMC7802242, “The nuclear lamina is a hub for the nuclear function of Jacob” (Molecular Brain, 2021)

Columns and labels:
untagged LaminB1 = target: T1, untagged LaminB1 (human, UniProt P20700 1-586); assay: pull-down; amylose-MBP matrix alone or coupled with MBP-Jacob proteins, washed in 20 mM Tris pH 7.5, 1 mM DTT, 3 mM EDTA, 100 mM NaCl, 0.3% TritonX-100; incubated with 20 μg of untagged LaminB1 or untagged CRM1 overnight at 4 °C; Western blot; conditions: both partners purified
T1 construct: Lamin B1, human, subcloned from mTagRFP-hLaminB1 into the Intein-pMXB10 vector between NdeI and XhoI; Cloning through the XhoI site may leave a few vector residues at the C-terminus after the intein is cut off (surmise); also called recombinant LaminB1; LaminB1(PMXB10); source: E. coli SHuffle (C3026), purified (chitin resin, released with 50 mM DTT)
T1 sequence (looked up): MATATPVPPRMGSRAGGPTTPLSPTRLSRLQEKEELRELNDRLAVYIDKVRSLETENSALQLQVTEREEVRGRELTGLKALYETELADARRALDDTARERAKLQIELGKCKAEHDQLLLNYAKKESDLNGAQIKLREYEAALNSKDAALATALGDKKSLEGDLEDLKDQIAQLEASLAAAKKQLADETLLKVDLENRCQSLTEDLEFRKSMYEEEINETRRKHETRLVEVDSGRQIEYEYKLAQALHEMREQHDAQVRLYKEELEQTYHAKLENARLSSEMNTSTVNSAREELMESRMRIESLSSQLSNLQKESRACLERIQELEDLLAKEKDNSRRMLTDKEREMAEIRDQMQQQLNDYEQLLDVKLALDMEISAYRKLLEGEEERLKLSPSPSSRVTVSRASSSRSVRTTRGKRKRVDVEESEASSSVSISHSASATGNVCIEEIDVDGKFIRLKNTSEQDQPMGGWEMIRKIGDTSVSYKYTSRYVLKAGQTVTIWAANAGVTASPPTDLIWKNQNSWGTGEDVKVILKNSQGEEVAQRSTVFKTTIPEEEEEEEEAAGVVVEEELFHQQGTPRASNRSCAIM

untagged-CRM1 = target: T2, untagged-CRM1 (human, UniProt O14980 1-1071); assay: as above; conditions: both partners purified
T2 construct: CRM1 (Exportin 1), human, subcloned from 3xFLAG-hCRM1 into the Intein-pMXB10 vector between NdeI and XhoI; Cloning through the XhoI site may leave a few vector residues at the C-terminus after the intein is cut off (surmise); also called recombinant CRM1; CRM1 (PMXB10); source: E. coli ExpressLysY/Iq, purified (chitin resin, released with 50 mM DTT)
T2 sequence (O14980 whole entry): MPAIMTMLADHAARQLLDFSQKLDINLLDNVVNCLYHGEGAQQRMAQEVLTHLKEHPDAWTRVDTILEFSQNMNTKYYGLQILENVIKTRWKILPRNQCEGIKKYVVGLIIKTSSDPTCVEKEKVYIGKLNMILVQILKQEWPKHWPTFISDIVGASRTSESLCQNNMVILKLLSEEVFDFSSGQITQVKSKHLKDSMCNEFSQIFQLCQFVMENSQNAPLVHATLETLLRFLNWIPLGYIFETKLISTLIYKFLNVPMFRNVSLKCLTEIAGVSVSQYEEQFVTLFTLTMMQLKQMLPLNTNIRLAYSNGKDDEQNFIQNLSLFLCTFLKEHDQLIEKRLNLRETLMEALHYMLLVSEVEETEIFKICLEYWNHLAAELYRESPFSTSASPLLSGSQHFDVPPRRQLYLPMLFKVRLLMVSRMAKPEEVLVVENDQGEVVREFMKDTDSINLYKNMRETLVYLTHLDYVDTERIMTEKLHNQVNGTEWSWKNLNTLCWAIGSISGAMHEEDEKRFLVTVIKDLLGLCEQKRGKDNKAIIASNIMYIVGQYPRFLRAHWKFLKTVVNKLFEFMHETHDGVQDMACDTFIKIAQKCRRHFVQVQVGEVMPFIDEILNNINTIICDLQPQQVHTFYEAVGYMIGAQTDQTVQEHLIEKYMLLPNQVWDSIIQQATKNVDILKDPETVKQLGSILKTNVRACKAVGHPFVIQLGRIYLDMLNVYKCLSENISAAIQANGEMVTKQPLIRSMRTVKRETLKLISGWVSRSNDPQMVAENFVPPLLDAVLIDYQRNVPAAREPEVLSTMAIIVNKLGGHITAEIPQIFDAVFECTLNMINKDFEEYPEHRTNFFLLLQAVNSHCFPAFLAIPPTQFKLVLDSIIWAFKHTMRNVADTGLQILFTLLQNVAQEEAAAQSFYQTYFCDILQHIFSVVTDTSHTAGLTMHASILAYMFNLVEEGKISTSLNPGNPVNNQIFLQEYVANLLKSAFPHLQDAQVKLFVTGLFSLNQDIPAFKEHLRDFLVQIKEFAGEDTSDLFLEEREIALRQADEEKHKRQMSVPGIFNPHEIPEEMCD

B1: MBP-45-532-Jacob (domain or fragment, rat, UniProt Q9EPI6 45-532, looked up)
chain: DHLLADAYSGHEGSPEMQPAPHNKRRLSLVSNGRYEGSISDEAVSGKTATEGPQPRVYTISREPALLPGSEAEAIELAVVKGRRQRERHPHHHSQPLRASPGSSREDISRPCQSWAGSRQGSKECPGCAKLVPGPSPRAFGLEQPPLPEASGRHKKLERMYSVDGVSDDVPIRTWFPKENPFSFQTATTTMQAISVFRGYAERKRRKRENDSASVIQRNFRKHLRMVGSRRVKAQTFAERRERSFSRSWSDPTPMKADTSHDSRDSSDLQSSHCTLDEACEDLDWDTEKGLEATACDTEGFLPPKVMLISSKVPKAEYIPTIIRRDDPSIIPILYDHEHATFEDILEEIEKKLNIYHKGAKIWKMLIFCQGGPGHLYLLKNKVATFAKVEKEEDMIHFWKRLSRLMSKVNPEPNVIHIMGCYILGNPNGEKLFQNLRTLMTPYKVTFESPLELSAQGKQMIETYFDFRLYRLWKSRQHSKLLDFDDVL
notes: Jacob (Nsmf), residues 45-532, truncated for protein stability; also called amylose-MBP-45-532-Jacob; Jacob fused to MBP; source: E. coli SHuffle (C3026), pMAL vector, coupled to amylose resin
B1: binds (untagged LaminB1); binds (untagged-CRM1).
